Assay results taken from patent US20240219403A1, “METHODS FOR INHIBITING KRAS ONCOPROTEIN THROUGH ENHANCED GTPASE ACTIVITY” (Memorial Sloan-Kettering Cancer Center, priority 2021, published 2024).

Molecular target: T1, KRAS^G12C (Homo sapiens, UniProt P01116, G12C)
T1 construct: endogenous in cells; host or cells: H358, H2122, H2030, SW1573 (KRAS G12C-mutant lung cancer lines, ATCC)
Test: GTPase assays of purified GTP-loaded KRAS^G12C incubated with GAP proteins (γ-phosphate, α-phosphate, continuous phosphate release)
Format: biochemical
Conditions: purified proteins
Method: GTP[γ^32P] hydrolysis assay. KRAS proteins (0.5 μg) were reacted with 0.04 μM GTP[γ^32P] (6000 Ci/mmol; PerkinElmer Life Sciences) in 100 μL loading buffer (50 mM HEPES, pH 7.5, 50 mM NaCl, 1 mM DTT, 0.1 mM EGTA, 10 mM EDTA, and 1 mg/mL BSA) for 10 min at 30° C. (5, 40). Loading reactions were stopped by placing on ice and adding MgCl2 to a final concentration of 20 mM. The GTPase assays were performed at 30° C. in 100 μL mixtures containing 20 nM of loaded KRAS and either hydrolysis buffer (25 mM HEPES pH 7.5, 50 mM NaCl, 1 mM DTT, 1 mM MgCl2 and 1 mg/mL BSA) alone, or in combination with WCE or purified RGS3 (0.08-0.4 μg/μL). Equimolar comparisons of NF1, RASA1 and RGS3 were carried out using the continuous hydrolysis assay (see below). Reactions were stopped at the indicated time by filtering through 0.45-μm nitrocellulose membrane filters. The filters were washed 3 times with 0.2 mL of ice-cold hydrolysis buffer, air dried, and processed by autoradiography. Reaction rates were determined by fitting an exponential curve to the data, which was normalized to the baseline value. For the determination of protein stability, the hydrolysis reactions were stopped by boiling at 100° C. for 10 min in Laemmli buffer. The samples were then subjected to SDS-PAGE followed by Coomasie staining (CBB) or immunoblotting with a His-specific antibody.
GTP[α^32P] hydrolysis assay. KRAS proteins were loaded with GTP[α^32P] (3000 Ci/mmol; PerkinElmer Life Sciences) and subjected to the hydrolysis reaction as indicated above. Upon completion of the hydrolysis reaction and immobilization of KRAS-nucleotide complexes on nitrocellulose membranes, the nucleotides were eluted by incubating with elution buffer (50 mM HEPES pH 7.5, 50 mM NaCl, 1 mM DTT, 0.1 mM EGTA, 0.1% SDS, 10 mM EDTA, 1 mM GTP and 1 mM GDP) for 3 min at 85° C. […]
Continuous hydrolysis assay (two-step detection of inorganic phosphate). […] The reaction was monitored by reading the absorbance at 360 nm every 10 to 20 s for ˜16-60 min at room temperature. […]

effect on GTP-hydrolysis by KRAS^G12C | Molecule
enhance the KRAS GTPase activity | RGS4: regulator of G protein signaling 4, RGS family member (protein) MCKGLAGLPASCLRSAKDMKHRLGFLLQKSDSCEHNSSHNKKDKVVICQRVSQEEVKKWAESLENLISHECGLAAFKAFLKSEYSEENIDFWISCEEYKKIKSPSKLSPKAKKIYNEFISVQATKEVNLDSCTREETSRNMLEPTITCFDEAQKKIFNLMEKDSYRRFLKSRFYLDLVNPSSCGAEKQKGAKSSADCASLVPQCA
no measurable effect | RASA1: canonical RAS-GAP (protein) MEKIMPEEEYSEFKELILQKELHVVYALSHVCGQDRTLLASILLRIFLHEKLESLLLCTLNDREISMEDEATTLFRATTLASTLMEQYMKATATQFVHHALKDSILKIMESKQSCELSPSKLEKNEDVNTNLTHLLNILSELVEKIFMASEILPPTLRYIYGCLQKSVQHKWPTNTTMRTRVVSGFVFLRLICPAILNPRMFNIISDSPSPIAARTLILVAKSVQNLANLVEFGAKEPYMEGVNPFIKSNKHRMIMFLDELGNVPELPDTTEHSRTDLSRDLAALHEICVAHSDELRTLSNERGAQQHVLKKLLAITELLQQKQNQYTKTNDVR
some activity | NF1: canonical RAS-GAP; recombinant NF1 GAP related domain (1198-1530aa) (protein, left off: small tags and cut ends) ETVLADRFERLVELVTMMGDQGELPIAMALANVVPCSQWDELARVLVTLFDSRHLLYQLLWNMFSKEVELADSMQTLFRGNSLASKIMTFCFKVYGATYLQKLLDPLLRIVITSSDWQHVSFEVDPTRLEPSESLEENQRNLLQMTEKFFHAIISSSSEFPPQLRSVCHCLYQATCHSLLNKATVKEKKENKKSVVSQRFPQNSIGAVGSAMFLRFINPAIVSPYEAGILDKKPPPRIERGLKLMSKILQSIANHVLFTKEEHMRPFNDFVKSNFDAARRFFLDIASDCPTSDAVNHSLSFISDGNVLALHRLLWNNQEKIGQYLSSNRDHKA
